The target of assay [1] is T1, IgG(f) protein (Herceptin scFv).
T1 construct: Polypeptide of the human IgG1-based scFv region (GenBank AWW43726); Expressed from pET29a(+) (NdeI/XhoI) in E. coli and purified on Ni-NTA resin; also called recombinant immunoglobulin G fragment
The assay can be described thus: binder coupled to NHS-Sepharose in 96-well filter plate; bound IgG(f) eluted at pH 2.5 and read at OD280, before and after 0.3 M NaOH.

The target is the same in assay [2]. The assay can be described thus: binder coupled to NHS-Sepharose in 96-well filter plate; bound IgG(f) eluted and read at OD280 after 0.3 M NaOH.
For assay [3] the target is unchanged. Kind of assay: binder coupled to NHS-Sepharose in 96-well filter plate; bound IgG(f) eluted and read at OD280 after 0.3 M NaOH; reference set to 100%.
Assay [4] has the same target. Kind of assay: binder coupled to NHS-Sepharose; bound IgG(f) eluted and read at OD280; relative to 0 h (100%), after 5 h in 0.3 M NaOH; reference wB3. As to the method:
The library prepared in Example 5 was purified by the same manner as in Examples <1-3>, and the absorbance over time was measured by the same method as in Example 3 to compare the alkali tolerance. The absorbance over time obtained is shown in FIG. 5 as a relative value to the absorbance (100%) at the beginning (0 h).

T1 sequence (scFv, as listed by the source): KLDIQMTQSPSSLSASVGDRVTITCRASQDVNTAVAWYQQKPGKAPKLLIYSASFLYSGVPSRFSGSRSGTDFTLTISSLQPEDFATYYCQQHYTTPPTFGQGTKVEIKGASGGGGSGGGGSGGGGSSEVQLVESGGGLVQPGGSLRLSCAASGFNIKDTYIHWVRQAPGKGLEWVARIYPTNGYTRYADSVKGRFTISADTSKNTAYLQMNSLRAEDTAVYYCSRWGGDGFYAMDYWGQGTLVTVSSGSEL

B1: Wild-type Protein L B3 domain (other)
chain: MPKEEVTIKANLIYADGKTQTAEFKGTFEEATAEAYRYADLLAKENGKYTVDVADKGYTLNIKFAGKEKTPEE
notes: also called wB3; wild-type B3 domain; not shown: 6xHis tag
Consider B1, for which the binding result in assay [1] is “binds”.

B2: Protein L B3 domain variant BEP4(E28G/N60E) (designed binder)
chain: MPKEEVTIKANLIYADGKTQTAEFKGTFGEATAEAYRYADLLAKENGKYTVDVADKGYTLEIKFAGKEKTPEE
notes: not shown: 6xHis tag
B2: in assay [2], the binding result was “binds”.

B3: Protein L B3 domain variant EP1(E28A) (designed binder)
chain: MPKEEVTIKANLIYADGKTQTAEFKGTFAEATAEAYRYADLLAKENGKYTVDVADKGYTLNIKFAGKEKTPEE
notes: not shown: 6xHis tag
B3: the binding result in assay [1] was “binds”.

B4: Protein L B3 domain variant EPS2(E28P) (designed binder)
chain: MPKEEVTIKANLIYADGKTQTAEFKGTFPEATAEAYRYADLLAKENGKYTVDVADKGYTLNIKFAGKEKTPEE
notes: not shown: 6xHis tag
Take B4: in assay [2], the binding result is “binds”.

B5: Protein L B3 domain variant BEP3(E28G/D51V) (designed binder)
chain: MPKEEVTIKANLIYADGKTQTAEFKGTFGEATAEAYRYADLLAKENGKYTVVVADKGYTLNIKFAGKEKTPEE
notes: not shown: 6xHis tag
B5: the binding result in assay [2] was “binds”.

B6: Protein L B3 domain variant EPS6(E28G/N60F) (designed binder)
chain: MPKEEVTIKANLIYADGKTQTAEFKGTFGEATAEAYRYADLLAKENGKYTVDVADKGYTLFIKFAGKEKTPEE
notes: not shown: 6xHis tag
Turning to B6, the binding result in assay [2] is given as “binds”.

B7: Protein L B3 domain variant EPS3(E28W) (designed binder)
chain: MPKEEVTIKANLIYADGKTQTAEFKGTFWEATAEAYRYADLLAKENGKYTVDVADKGYTLNIKFAGKEKTPEE
notes: not shown: 6xHis tag
Turning to B7, in assay [2], the binding result was “binds”.

B8: Protein L B3 domain variant EP2(E28G) (designed binder)
chain: MPKEEVTIKANLIYADGKTQTAEFKGTFGEATAEAYRYADLLAKENGKYTVDVADKGYTLNIKFAGKEKTPEE
notes: not shown: 6xHis tag
Regarding B8, in assay [3], the binding result is reported as “binds”.

B9: Protein L B3 domain variant EPS5(E28G/D51T) (designed binder)
chain: MPKEEVTIKANLIYADGKTQTAEFKGTFGEATAEAYRYADLLAKENGKYTVTVADKGYTLNIKFAGKEKTPEE
notes: not shown: 6xHis tag
For B9, in assay [2], the binding result is “binds”.

B10: Protein L B3 domain variant mBF4 (Y13F/E28G/K43P) (designed binder)
chain: MPKEEVTIKANLIFADGKTQTAEFKGTFGEATAEAYRYADLLAPENGKYTVDVADKGYTLNIKFAGKEKTPEE
notes: also called mBF monomer; not shown: 6xHis tag
As to B10, the “fold increase in alkali tolerance (residual scFv binding activity after 5 hours in 0.3 M NaOH) compared to wB3” value in assay [4] is around 2.7 fold.

B11: Protein L B3 domain variant EPS4(E28G/K43E) (designed binder)
chain: MPKEEVTIKANLIYADGKTQTAEFKGTFGEATAEAYRYADLLAEENGKYTVDVADKGYTLNIKFAGKEKTPEE
notes: not shown: 6xHis tag
For B11, the binding result in assay [2] is “binds”.

B12: Protein L B3 domain variant BEP2(E28G/K43P) (designed binder)
chain: MPKEEVTIKANLIYADGKTQTAEFKGTFGEATAEAYRYADLLAPENGKYTVDVADKGYTLNIKFAGKEKTPEE
notes: not shown: 6xHis tag
As for B12, the binding result in assay [2] is “binds”.

B13: Protein L B3 domain variant EPS1(E28L) (designed binder)
chain: MPKEEVTIKANLIYADGKTQTAEFKGTFLEATAEAYRYADLLAKENGKYTVDVADKGYTLNIKFAGKEKTPEE
notes: not shown: 6xHis tag
Consider B13, for which the binding result in assay [2] is on record as “binds”.

B14: Protein L B3 domain variant BEP1(E28G/Y13F) (designed binder)
chain: MPKEEVTIKANLIFADGKTQTAEFKGTFGEATAEAYRYADLLAKENGKYTVDVADKGYTLNIKFAGKEKTPEE
notes: not shown: 6xHis tag
With B14, the binding result in assay [2] is “binds”.

(Values after patent US20230356187A1 (AMICOGEN, published 2023).)
